What is called EC50 (read off the curve) is the concentration needed to bring the measured effect to its halfway point.

Here are results for seven molecules from patent US20200392244A1 (CRESCENDO BIOLOGICS, published 2020).

In experiment [1] the target is T1, cynomolgus PSMA on CHO cells (cynomolgus, UniProt A0A2K5VNZ0 1-750).
T1 construct: whole, on cells; also called cynoPSMA CHO; Cyno PSMA CHO
Description: FMAT screen, Cyno PSMA CHO cells.

Experiment [2] concerns the target T1, cynomolgus PSMA on CHO cells. Description: cell-based or functional assay.
For experiment [3] the target is unchanged. The experiment is described as follows: cell-based or functional assay. This is another data set of the same source.
The target of experiment [4] is T2, human PSMA on cells (CHO human PSMA, DU145 PSMA, LNCaP) (human, UniProt Q04609 1-750). Description: cell-based or functional assay.
T2 sequence (Q04609 whole entry): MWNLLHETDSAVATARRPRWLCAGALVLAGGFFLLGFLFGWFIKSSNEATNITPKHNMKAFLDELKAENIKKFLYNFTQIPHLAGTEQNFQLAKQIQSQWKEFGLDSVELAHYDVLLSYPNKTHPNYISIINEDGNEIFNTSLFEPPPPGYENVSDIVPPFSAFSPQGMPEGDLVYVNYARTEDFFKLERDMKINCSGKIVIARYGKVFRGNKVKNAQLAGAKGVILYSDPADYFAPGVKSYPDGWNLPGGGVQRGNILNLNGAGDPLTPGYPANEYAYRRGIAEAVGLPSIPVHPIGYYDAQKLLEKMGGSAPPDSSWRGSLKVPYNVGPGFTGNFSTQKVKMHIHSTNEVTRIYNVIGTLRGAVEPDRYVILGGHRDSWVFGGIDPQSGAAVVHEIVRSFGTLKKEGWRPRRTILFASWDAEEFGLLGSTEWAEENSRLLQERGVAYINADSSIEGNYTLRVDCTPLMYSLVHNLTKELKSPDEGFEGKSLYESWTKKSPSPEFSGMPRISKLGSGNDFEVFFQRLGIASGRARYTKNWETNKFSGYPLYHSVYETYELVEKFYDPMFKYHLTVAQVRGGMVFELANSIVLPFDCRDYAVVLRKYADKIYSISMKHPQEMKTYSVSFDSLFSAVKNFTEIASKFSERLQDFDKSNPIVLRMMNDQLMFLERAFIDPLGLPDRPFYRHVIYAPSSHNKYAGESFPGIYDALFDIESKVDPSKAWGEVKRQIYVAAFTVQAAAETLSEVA
The target in experiment [5] is T2, human PSMA on cells (CHO human PSMA, …). Description: FMAT Mirrorball direct cell binding of purified His-tagged VH on DU145 cells expressing PSMA [panel Du145 PSMA].
Experiment [6] has the same target. The experiment is described as follows: FMAT Mirrorball direct cell binding of purified His-tagged VH on LNCaP cells [panel LNCap].
Experiment [7] has the same target. The experiment is described as follows: FMAT Mirrorball direct cell binding of purified His-tagged VH on CHO cells expressing human PSMA [upper left panel huPSMA CHO].
Experiment [8] has as its target T3, recombinant human PSMA (R&D, cat. no. 4234-ZN) (human, UniProt Q04609 44-750).
T3 construct: Bought protein; also called rhPSMA; Recombinant PMSA
Description: HTRF binding assay with 3 nM biotinylated PSMA; VH 7 days in cynomolgus serum at 37 C. Background: Time-resolved FRET reads energy transfer from a long-lived donor to a nearby acceptor.

T3 sequence (Q04609 44-750 limits assumed): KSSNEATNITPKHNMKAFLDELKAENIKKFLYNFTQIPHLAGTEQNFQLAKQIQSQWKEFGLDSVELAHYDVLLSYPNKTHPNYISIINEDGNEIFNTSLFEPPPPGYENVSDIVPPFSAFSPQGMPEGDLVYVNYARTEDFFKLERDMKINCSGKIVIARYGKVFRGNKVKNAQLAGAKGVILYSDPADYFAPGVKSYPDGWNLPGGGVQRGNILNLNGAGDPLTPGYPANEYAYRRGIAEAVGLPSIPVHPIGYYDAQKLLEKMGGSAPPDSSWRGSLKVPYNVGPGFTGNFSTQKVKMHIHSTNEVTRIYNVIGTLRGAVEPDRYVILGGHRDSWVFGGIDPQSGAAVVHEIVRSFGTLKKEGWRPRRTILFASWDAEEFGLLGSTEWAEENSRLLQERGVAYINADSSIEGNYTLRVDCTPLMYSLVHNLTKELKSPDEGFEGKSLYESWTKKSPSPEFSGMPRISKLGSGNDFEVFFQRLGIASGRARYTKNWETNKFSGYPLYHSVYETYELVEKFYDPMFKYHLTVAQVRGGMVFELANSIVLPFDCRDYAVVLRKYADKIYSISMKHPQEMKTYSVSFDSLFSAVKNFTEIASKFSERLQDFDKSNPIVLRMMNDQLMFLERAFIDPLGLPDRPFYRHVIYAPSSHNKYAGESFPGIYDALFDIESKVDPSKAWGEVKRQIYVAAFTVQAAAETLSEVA

B1: single VH domain antibody 13.1 (VHH)
VHH: EVQLVESGGGSVQPGGSLRLSCAASGFTFSDYWMTWVRQVPGKGLEWVANIKQDGSEKYYVDSVKGRFTISRDNAKNSLYLQMNSLRAEDTAVYYCARDRGGAVALYHNGMDMGGQGTTVTVSS
notes: human single VH domain; C-terminal His(-myc) tag not included; also called family 13
With B1, the binding result in experiment [1] is given as “no binding”.

B2: single VH domain antibody 5.1 (VHH)
VHH: QVQLVESGGGVVQPGRSLRLSCAASGFTFNNYGMHWVRQAPGKGLEWVAIISYDGNTKYYTDSVKGRFTISRDNSKNTLYLQMNSLRVEDTAVYYCAKGLWPSDVWGQGTTVTVSS
Turning to B2, in experiment [2], the “EC50 (read off the curve), pHrodo Green internalisation” value is around 2e-09 M.

B3: single VH domain antibody 2.1 (VHH)
VHH: EVQLVESGGGVVQPGRSLRLSCAASGFSFSGYGMHWVRQAPGKGLEWVAYISYDGSNKYYADSVKGRFTISRDNSKNTLYLQMNSLRAEDTAVYYCAKDPAWGLRLGESSSYDFDIWGQGTMVTVSS
For B3, the “IC50 (read off the curve), His-ZAP killing” value in experiment [3] is around 0.1 nM; in experiment [4], around 0.04 nM.

B4: single VH domain antibody 2.12 (VHH)
VHH: EVQLVESGGGVVQPGRSLRLSCAASGFSFSGYGMHWVRQAPGKGLEWVAYISYDKSNKYYADKVKGRFTISRDNSKNTLYLQMNSLRAEDTAVYYCAKDPAWGLRLGESSSYDFDIWGQGTMVTVSS
notes: variant of 2.1; human single VH domain; C-terminal His(-myc) tag not included
As for B4, the “EC50 (read off the curve)” value was around 0.2 nM in experiment [5], around 0.03 nM in experiment [6] and around 0.1 nM in experiment [7].

B5: single VH domain antibody 2.13 (VHH)
VHH: EVQLVESGGGVVQPGRSLRLSCAASGFSFSGYGLHWVRQAPGKGLEWVAYISYDASNKYYADNVKGRFTISRDNSKNTLYLQMNSLRAEDTAVYYCAKDPAWGLRLGESSSYDFDIWGQGTMVTVSS
notes: as for B4
Take B5: the “EC50 (read off the curve)” value in experiment [5] is around 0.2 nM; in experiment [7], around 0.1 nM.

B6: 3.2 (VHH)
VHH: EVQLVESGGGVVQPGRSLRLSCAASGFPLISYGMNWVRQAPGKGLDWVAFISYDGSNKYYADSVKGRFTISKDNSKNTLYLQMNSLRAEDTAVYYCAKDRIVGARVPDAFDIWGQGTMVTVSS
Take B6: the “EC50 (read off the curve), pHrodo Green internalisation” value in experiment [2] is around 1e-09 M.

B7: single VH domain antibody 3.1 (VHH)
VHH: EVQLVESGGGVVQPGRSLRLSCAASGFPLISYGMHWVRQAPGKGLEWVAFMTYDGSNRYYADSVKGRFTISRDNSKNTLYLQMNSLRDEDTALYYCARDRIVGGRVPDAFDIWGQGTMVTVSS
notes: human single VH domain; C-terminal His(-myc) tag not included; also called VH3.1; family 3 parent
On to B7, for which the “EC50 (read off the curve)” value in experiment [8] was around 1 nM.
